The values that follow come from article PMC6965139, “Crystal structures of fukutin-related protein (FKRP), a ribitol-phosphate transferase related to muscular dystrophy” (Nature Communications, 2020).

The target in series [1] is T1, sFKRP (secreted type, His/Myc, WT) (Homo sapiens, UniProt Q9H9S5).
T1 construct: gene FKRP; Asn33 to C-terminus in ss1-His/Myc-pcDNA3.1; secreted from HEK293T; immunoprecipitated on anti-c-Myc agarose; tags kept
T1 sequence (Q9H9S5 33-495): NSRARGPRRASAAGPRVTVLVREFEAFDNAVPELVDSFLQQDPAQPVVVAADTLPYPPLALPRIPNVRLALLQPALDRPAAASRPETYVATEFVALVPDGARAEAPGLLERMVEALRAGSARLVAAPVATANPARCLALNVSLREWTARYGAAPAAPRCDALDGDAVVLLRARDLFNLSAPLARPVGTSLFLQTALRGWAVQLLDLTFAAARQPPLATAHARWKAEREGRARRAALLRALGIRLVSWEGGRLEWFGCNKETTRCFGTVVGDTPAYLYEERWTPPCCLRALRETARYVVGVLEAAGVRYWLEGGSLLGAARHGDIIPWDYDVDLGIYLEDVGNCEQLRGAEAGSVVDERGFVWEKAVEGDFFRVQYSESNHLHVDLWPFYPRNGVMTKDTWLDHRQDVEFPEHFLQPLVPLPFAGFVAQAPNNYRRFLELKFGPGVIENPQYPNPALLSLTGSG
As to the kind of experiment: ribitol-phosphate transfer, HPLC and MALDI-TOF MS. The series is classed as biochemical. Conditions: 200 uM CDP-Rbo, 40 uM RboP-(phospho-)core M3 peptide, 10 mM MnCl2 and MgCl2, pH 6.5, 310 K; enzyme on anti-Myc agarose.

The target of series [2] is secreted type of FKRP Tyr88Phe mutant (Asn33 to the C-terminus, His/Myc) (human) (UniProt Q9H9S5).
The target of series [3] is secreted type of FKRP Leu276Ile mutant (Asn33 to the C-terminus, His/Myc) (human) (UniProt Q9H9S5).
The target in series [4] is secreted type of FKRP Ser221Arg mutant (Asn33 to the C-terminus, His/Myc) (human) (UniProt Q9H9S5).
Series [5] concerns the molecule itself. The experiment in a line: crystal structure; sFKRP without substrates, Mg2+ and Ba2+ bound forms; four subunits in the asymmetrical unit; hanging-drop vapor diffusion at 293 K, PEG 4000, HEPES-NaOH pH 7.5; interfaces judged with ePISA.

Changes are numbered by the printed parent chain.

For `Nc1ccn([C@@H]2O[C@H](COP(=O)(O)OP(=O)(O)OC[C@@H](O)[C@@H](O)[C@@H](O)CO)[C@@H](O)[C@H]2O)c(=O)n1` [CDP-Rbo], the “ribitol-phosphate transfer, HPLC and MALDI-TOF MS” value in series [1] was “Enzymatic activity of sFKRP with CDP-Rbo and the RboP-(phospho-)core M3 peptide”.

B1: secreted type of FKRP Tyr88Phe mutant (Asn33 to the C-terminus, His/Myc) (enzyme)
chain: T1 sequence (Q9H9S5 33-495) with Y56F
Molecule B1 registered a glycosyltransferase activity with CDP-Rbo and the RboP-(phospho-)core M3 peptide, relative to the wild-type enzyme (% of the wild-type enzyme) in series [2] of 20.

B2: secreted type of FKRP Leu276Ile mutant (Asn33 to the C-terminus, His/Myc) (enzyme)
chain: T1 sequence (Q9H9S5 33-495) with L244I
B2 gave a glycosyltransferase activity with CDP-Rbo and the RboP-(phospho-)core M3 peptide, relative to the wild-type enzyme (% of the wild-type enzyme) in series [3] of 50.

B3: secreted type of FKRP Ser221Arg mutant (Asn33 to the C-terminus, His/Myc) (enzyme)
chain: T1 sequence (Q9H9S5 33-495) with S189R
Take B3: in series [4], the glycosyltransferase activity with CDP-Rbo and the RboP-(phospho-)core M3 peptide, relative to the wild-type enzyme (% of the wild-type enzyme) turned out to be 5.

B4: soluble form of fukutin-related protein (sFKRP, residues 45 to C-terminus) (enzyme, human, UniProt Q9H9S5 45-495, looked up)
chain: AGPRVTVLVREFEAFDNAVPELVDSFLQQDPAQPVVVAADTLPYPPLALPRIPNVRLALLQPALDRPAAASRPETYVATEFVALVPDGARAEAPGLLERMVEALRAGSARLVAAPVATANPARCLALNVSLREWTARYGAAPAAPRCDALDGDAVVLLRARDLFNLSAPLARPVGTSLFLQTALRGWAVQLLDLTFAAARQPPLATAHARWKAEREGRARRAALLRALGIRLVSWEGGRLEWFGCNKETTRCFGTVVGDTPAYLYEERWTPPCCLRALRETARYVVGVLEAAGVRYWLEGGSLLGAARHGDIIPWDYDVDLGIYLEDVGNCEQLRGAEAGSVVDERGFVWEKAVEGDFFRVQYSESNHLHVDLWPFYPRNGVMTKDTWLDHRQDVEFPEHFLQPLVPLPFAGFVAQAPNNYRRFLELKFGPGVIENPQYPNPALLSLTGSG
notes: fukutin-related protein (FKRP), human, residues 45 to C-terminus, 451 amino acid residues in total; stem domain 45-287, catalytic domain 288-495; Sugar chains were removed by Endo H glycosidase before the last gel filtration; also called lumenal region of human FKRP; not shown: protein A, N-terminal, cleaved
As for B4, the “stoichiometry N” value in series [5] was determined as 4.
